Results published in publication doi:10.1101/226712.

Target: ClpXP (ClpX6P14) with Cy3-labeled ClpPQ48C, immobilized through biotinylated ClpX6 (Escherichia coli) (UniProt P0A6H1)
Test: single-molecule TIRF fluorescence with alternating laser excitation

Substance	total dwell time (Δτ, bound and processed) [s]
Titin-I27 V13P with the C-terminal ssrA tag, Cy5-labeled at Cys (domain or fragment)	7.3
Titin-I27 wild-type with the C-terminal ssrA tag, Cy5-labeled at Cys (domain or fragment)	7.5
